In PMC6954389 (Nucleic Acids Research, 2019):

Molecular target: T1, His6-σ^A_(C170), C-terminal residues 359–528 of σ^A, wildtype (M. tuberculosis, UniProt P9WGI1 359-528)
T1 sequence: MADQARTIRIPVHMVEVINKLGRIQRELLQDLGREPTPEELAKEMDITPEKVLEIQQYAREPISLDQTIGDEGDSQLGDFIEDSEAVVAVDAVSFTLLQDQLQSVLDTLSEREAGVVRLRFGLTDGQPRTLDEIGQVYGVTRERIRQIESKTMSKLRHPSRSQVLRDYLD
Assay: pull-down

B1: tagless wildtype WhiB1, purified (from His6-SUMO-WhiB1) (natural protein)
chain: MDWRHKAVCRDEDPELFFPVGNSGPALAQIADAKLVCNRCPVTTECLSWALNTGQDSGVWGGMSEDERRALKRRNARTKARTGV
binding result: binds
